# Source: PMC9182242, “Copper Binding and Oligomerization Studies of the Metal Resistance Determinant CrdA from Helicobacter pylori” (Molecules, 2022)
# B1: CrdA protein from Helicobacter pylori (HpCrdA) (natural protein)
# chain: QTLKANDLEVKIKSVGNPIKGDNTFILSPTLKGKALEKAIVRVQFMMPEMPGMPAMKEMAQVSEKNGLYEAKTNLSMNGTWQVRVDIKSKEGQVYRAKTSLDL
# notes: predicted mass of the monomer ~12.4 kDa; Residues of the pGEX-6P-1 linker probably remain after PreScission cleavage (surmised); also called HP1326; apo-HpCrdA; source: E. coli BL21(DE3), purified (GSTrap, GST cleaved with PreScission protease, Superdex 75 SEC); not shown: GST, N-terminal, cleaved
# Molecular target: the molecule itself
# Assay: SEC; analytical SEC, Superose 12 10/300 GL, 20 mM Tris-base pH 7.5, 150 mM NaCl, 3.8 mM nOG; HpCrdA incubated with EDTA (metal chelated); monomer-dimer equilibrium
protein,measurement,value
B1,stoichiometry N,2
